Paper PMC4614378, “A cancer-associated mutation inactivates a region of the high-mobility group protein HMG20b essential for cytokinesis” (Cell Cycle, 2014)
No end group written: not given here.

Assays:
Assay in all cases: pull-down; 1 nmol biotinylated BRC5 peptide on Dynabeads M-280 Streptavidin, 100 pmol purified HMG20b fragment; 50mM Tris-HCl pH 7.4, 150mM NaCl, 1% NP-40, 5mM EDTA, 10mM NaF, 0.1% BSA; 30 minutes at room temperature; Coomassie staining
Details in all cases: both partners purified
[1] = target: T1, HMG20b fragment aa173-317 with C-terminal 6xHis tag (human, UniProt Q9P0W2 173-317)
T1 construct: cloned in pET21a; also called C-terminal fragment; source: E. coli BL21 (DE3), purified (Ni-NTA agarose)
T1 sequence (looked up): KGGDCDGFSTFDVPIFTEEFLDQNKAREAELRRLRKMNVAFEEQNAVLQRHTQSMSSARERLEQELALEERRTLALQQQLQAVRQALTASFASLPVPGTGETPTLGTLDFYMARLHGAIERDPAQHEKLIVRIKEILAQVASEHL

[2] = target: T2, HMG20b fragment aa113-317 with C-terminal 6xHis tag (human, UniProt Q9P0W2 113-317)
T2 construct: cloned in pET21a; source: E. coli BL21 (DE3), purified (Ni-NTA agarose)
T2 sequence (looked up): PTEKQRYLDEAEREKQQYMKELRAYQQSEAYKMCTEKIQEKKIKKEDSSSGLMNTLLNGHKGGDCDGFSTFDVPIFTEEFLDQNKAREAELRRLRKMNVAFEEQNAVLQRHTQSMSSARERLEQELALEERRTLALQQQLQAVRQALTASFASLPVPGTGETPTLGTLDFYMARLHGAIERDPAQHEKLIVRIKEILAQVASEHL

[3] = target: T3, HMG20b fragment aa173-276 with C-terminal 6xHis tag (human, UniProt Q9P0W2 173-276)
T3 construct: cloned in pET21a; also called C-terminal Δ1; source: E. coli BL21 (DE3), purified (Ni-NTA agarose)
T3 sequence (looked up): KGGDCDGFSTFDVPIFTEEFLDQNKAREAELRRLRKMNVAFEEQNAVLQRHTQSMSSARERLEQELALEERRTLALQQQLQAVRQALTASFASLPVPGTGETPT

[4] = target: T4, full-length HMG20b with C-terminal 6xHis tag (human, UniProt Q9P0W2 1-317)
T4 construct: cloned in pET21a; also called His-HMG20b; source: E. coli BL21 (DE3), purified (Ni-NTA agarose)
T4 sequence (looked up): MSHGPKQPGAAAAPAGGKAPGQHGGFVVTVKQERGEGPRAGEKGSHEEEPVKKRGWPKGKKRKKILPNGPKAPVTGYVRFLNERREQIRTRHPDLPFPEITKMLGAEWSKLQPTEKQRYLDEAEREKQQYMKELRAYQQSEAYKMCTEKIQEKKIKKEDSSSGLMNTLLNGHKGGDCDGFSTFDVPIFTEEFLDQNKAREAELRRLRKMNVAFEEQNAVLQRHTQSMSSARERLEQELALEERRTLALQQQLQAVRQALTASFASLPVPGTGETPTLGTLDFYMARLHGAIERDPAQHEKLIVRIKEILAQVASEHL

Measured: binding result

B1: Biotinylated BRC5 peptide (BRCA2 amino acid residues 1661-1695) (peptide, UniProt P51587 1661-1695, looked up)
peptide: YSVIENSALAFYTSCSRKTSVSQTSLLEAKKWLRE
modifications: also: biotinylated (position not given here)
notes: BRCA2, human, BRC5 repeat motif, residues 1661-1695; also called Biotin-BRC5 peptide; BRC5 repeat; source: synthetic peptide (Cambridge Research Biochemicals)
binds: all assays above
